Experimental data as given in publication PMC3607351 (Structure (London, England : 1993), 2012).
Each block holds one molecule with its values, some of them ahead of it.

Tests used:
[1] = target: Recombinant mouse RANKL (residues 162-316), receptor-binding ectodomain, trimer (mouse) (UniProt O35235); test: SPR
[2] = target: T1, Extracellular cytokine-binding domain of mouse RANK (all four CRDs, residues 1-198) (mouse, UniProt O35305 31-198); test: SPR
T1 sequence (looked up): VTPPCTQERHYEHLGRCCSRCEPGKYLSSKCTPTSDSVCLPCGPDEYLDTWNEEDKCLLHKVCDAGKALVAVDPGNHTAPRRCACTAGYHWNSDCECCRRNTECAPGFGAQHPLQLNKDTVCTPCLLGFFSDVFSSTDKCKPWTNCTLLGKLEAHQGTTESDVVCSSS

[3] = target: the molecule itself; test: crystal structure

fold decrease in affinity against wild-type OPG CRDs [1]: 60 fold
fold slower on-rate than wild-type OPG CRDs [1]: 30 fold
Molecule: Mouse OPG F96A CRD fragment (CRDs 1 through 4) (from UniProt O08712 22-191) (domain or fragment)

Kd [2]: 2090 nM
B1: Recombinant mouse RANKL (residues 162-316), receptor-binding ectodomain, trimer (ligand, UniProt O35235-1 162-316, looked up)
chain: QPFAHLTINAASIPSGSHKVTLSSWYHDRGWAKISNMTLSNGKLRVNQDGFYYLYANICFRHHETSGSVPTDYLQLMVYVVKTSIKIPSSHNLMKGGSTKNWSGNSEFHFYSINVGGFFKLRAGEEISIQVSNPSLLDPDQDATYFGAFKVQDID
stoichiometry N [3]: 3
